Experimental data reported in PMC9959916, “A Highly Conserved Region in BRCA2 Suppresses the RAD51-Interaction Activity of BRC Repeats” (Veterinary Sciences, 2023).
Where a chain is given by its changes, count along the chain named.

T1: Gal4 DNA-binding domain-fused cBRC1-HCR-BRC2 A1108G (canine (Canis lupus familiaris), UniProt Q8MKI9 993-1248, A1108G)
T1 construct: canine BRCA2, residues 993-1248 with A1108G, a mutation reported in a canine mammary tumor; source: HeLa, transiently transfected, mammalian two-hybrid fusion
T1 sequence (looked up): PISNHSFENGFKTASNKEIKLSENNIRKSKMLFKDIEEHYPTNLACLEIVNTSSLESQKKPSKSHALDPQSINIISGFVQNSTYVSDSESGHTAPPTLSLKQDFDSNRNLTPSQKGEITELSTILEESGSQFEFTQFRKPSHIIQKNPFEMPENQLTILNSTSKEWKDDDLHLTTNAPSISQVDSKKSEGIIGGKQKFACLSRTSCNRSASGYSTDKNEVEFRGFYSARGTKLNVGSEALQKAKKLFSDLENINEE

T2: FLAG-HA-NLS-fused cBRC1-HCR-BRC2 A1108G (canine (Canis lupus familiaris), UniProt Q8MKI9 993-1248, A1108G)
T2 construct: canine BRCA2, residues 993-1248 with A1108G, a mutation reported in a canine mammary tumor; Very low expression; also called A1108G mutant; source: HeLa, stably expressing, in lysate
T2 sequence (looked up): T1 sequence (looked up)

B1: VP16-fused canine RAD51 (natural protein, UniProt Q8MKI8 1-339, looked up)
chain: MAMQMQLEANADTSVEEESFGPQPISRLEQCGINANDVKKLEEAGFHTVEAVAYAPKKELISIKGISEAKADKILTEAAKLVPMGFTTATEFHQRRSEIIQITTGSKELDKLLQGGIETGSITEMFGEFRTGKTQICHTLAVTCQLPIDRGGGEGKAMYIDTEGTFRPERLLAVAERYGLSGSDVLDNVAYARGFNTDHQTQLLYQASAMMVESRYALLIVDSATALYRTDYSGRGELSARQMHLARFLRMLLRLADEFGVAVVITNQVVAQVDGAAMFAADPKKPIGGNIIAHASTTRLYLRKGRGETRICKIYDSPCLPEAEAMFAINADGVGDAKD
notes: canine RAD51, cloned into the pVP16 vector; also called pVP16-RAD51; source: HeLa, transiently transfected, mammalian two-hybrid fusion
B2: endogenous RAD51 (HeLa cells) (natural protein, human (endogenous in HeLa), UniProt Q06609 1-339, looked up)
chain: B1 chain with S62N, T76A, G194A
notes: RAD51 recombinase, endogenous in HeLa cells; source: endogenous, HeLa lysate
B3: FLAG-HA-NLS-fused cBRC1-ΔHCR-BRC2 (canine BRCA2 993–1248 aa deleted with 1101–1133 aa) (domain or fragment, canine (Canis lupus familiaris), UniProt Q8MKI9 993-1248, looked up)
chain: PISNHSFENGFKTASNKEIKLSENNIRKSKMLFKDIEEHYPTNLACLEIVNTSSLESQKKPSKSHALDPQSINIISGFVQNSTYVSDSESGHTAPPTLSLKQDFDSNRHIIQKNPFEMPENQLTILNSTSKEWKDDDLHLTTNAPSISQVDSKKSEGIIGGKQKFACLSRTSCNRSASGYSTDKNEVEFRGFYSARGTKLNVGSEALQKAKKLFSDLENINEE
notes: canine BRCA2, residues 993-1248 with the HCR (1101-1133) deleted; also called HCR-deleted peptide; source: HeLa, stably expressing, in lysate

Key:
Conditions in all cases: partners not purified
[1] = molecular target: T1, Gal4 DNA-binding domain-fused …; experiment: two-hybrid; mammalian two-hybrid in HeLa cells: pM (Gal4 DNA-binding domain)-BRCA2 peptide, pVP16-canine RAD51, pG5-Luc firefly luciferase reporter, normalised to Renilla (pRL-TK); read two days after transfection
[2] = molecular target: T2, FLAG-HA-NLS-fused cBRC1-HCR-BRC2 A1108G; experiment: co-IP; lysates of HeLa cells stably expressing FLAG-HA-NLS-fused canine BRCA2 peptides, Benzonase-treated; FLAG M2 affinity agarose at 4 °C overnight; washed with 20 mM Tris-HCl pH 8.0, 150 mM KCl, 2 mM MgCl2, 10% glycerol; blots for endogenous RAD51 and PP2A-C subunit
[3] = molecular target: B2; experiment: co-IP; lysates of HeLa cells stably expressing FLAG-HA-NLS-fused canine BRCA2 peptides; 3 μg anti-RAD51 at 4 °C overnight, Protein G Dynabeads; peptides detected with anti-FLAG

B1
fold change against the wild-type peptide [1]: 1.5 fold

B2
fold change against the wild-type peptide [2]: 48 fold

B3
fold change against cBRC1-HCR-BRC2 [3]: ~1.5 fold
